Publication PMC4908374, “A humanized anti-DLL4 antibody promotes dysfunctional angiogenesis and inhibits breast tumor growth” (Scientific Reports, 2016)
Several values for one entry are separate records, joined by “and”; a condition that tells them apart may be missing. Equal values may be shown once.

B1: H3L2, humanized anti-DLL4 antibody (VH3, VL2) (antibody, V domains shown)
VH: QVQLVQSGAEVKKPGSSVKVSCKASGYTFSGYWMQWIKQAPGQGLEWIGAIYPGDGDTRYTQKFKGRATLTADKSTSTAYMELSSLRSEDTAVYYCAGGNFFFDYWGQGTLVTVSS
VL: EIVITQSPDFQSVTPKEKVTITCSVSSSISSSYLHWYQQKPDQSPKPWIYGTSNLASGVPSRFSGSGSGTDYTLTINSLEAEDAATYYCQQWSSSPLTFGQGTKLEIK
notes: Full-length IgG1; also called humanized antibody; source: CHO-s, transiently transfected, in supernatant
B2: HCLC, murine-human chimeric anti-DLL4 antibody (VH and VL of MMGZ01 on human constant regions) (antibody, V domains shown)
VH: EVQLEESGTELARPGASVKLSCKASGYIFSGYWMQWIKQRPGQGLEWIGAIYPGDGDTRYTQKFKGKATLTADKSSSTAYMQLSSLASEDSAVYYCAGGNFFFDYWGLGTTLAVSS
VL: DIVITQSPALMAASPGEKVTITCSVSSSISSSYLHWYQQKSGISPKPWIYGTSNLASGVPARFSGSGSGTSYSLTITSMEAEDAATYYCQQWSSSPLTFGAGTKLELK
notes: as the VH of m6; as the VL of m6; Full-length IgG1; also called chimeric antibody; source: CHO-s, transiently transfected, in supernatant

Molecular target: T1, rhDLL4 (recombinant human Delta-like 4) (Homo sapiens, UniProt Q9NR61)
T1 construct: Delta-like 4 (DLL4), human, recombinant
T1 sequence (Q9NR61 27-685, stated change not applied): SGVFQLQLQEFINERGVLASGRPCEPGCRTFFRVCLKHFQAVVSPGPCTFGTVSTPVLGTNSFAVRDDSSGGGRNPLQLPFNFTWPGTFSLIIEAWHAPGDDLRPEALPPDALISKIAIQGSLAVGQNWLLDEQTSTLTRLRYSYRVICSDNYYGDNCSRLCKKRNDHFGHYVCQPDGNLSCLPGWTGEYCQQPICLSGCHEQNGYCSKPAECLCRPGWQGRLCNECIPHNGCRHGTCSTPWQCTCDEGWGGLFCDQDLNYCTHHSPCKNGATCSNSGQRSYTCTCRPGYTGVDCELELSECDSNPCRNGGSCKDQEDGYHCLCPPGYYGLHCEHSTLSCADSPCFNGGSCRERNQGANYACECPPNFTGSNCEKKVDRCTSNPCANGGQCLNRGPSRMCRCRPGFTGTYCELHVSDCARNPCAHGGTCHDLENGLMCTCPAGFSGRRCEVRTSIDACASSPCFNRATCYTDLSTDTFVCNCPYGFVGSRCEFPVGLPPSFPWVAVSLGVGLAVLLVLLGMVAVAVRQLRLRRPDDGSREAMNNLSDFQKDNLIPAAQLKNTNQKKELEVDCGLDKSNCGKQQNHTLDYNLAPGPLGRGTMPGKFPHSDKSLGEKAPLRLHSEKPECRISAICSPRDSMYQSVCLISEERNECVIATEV
Assay: SPR; Biacore X100; HCLC or H3L2 captured (up to 2,000 RU) by anti-human IgG Fc antibody immobilised on a CM5 chip; rhDLL4 up to 100 nM flowed; 25 °C, 30 μl/min; 1:1 binding model; KD from kd/ka
Settings: both partners purified

Binder	Kd	koff [s⁻¹]	kon [M⁻¹ s⁻¹]
B1	2.26 pM	2.59e-05	1.15e+07
B2	1.14 pM and 1.41 pM	2.42e-05	1.72e+07
